In paper PMC7450122:

target: GST-p65, purified recombinant (UniProt Q04206); assay: alanine-scanning peptide array probed with GST-p65, anti-GST immunoblot
UniProt Q04206, sequence (Q04206 whole entry, looked up): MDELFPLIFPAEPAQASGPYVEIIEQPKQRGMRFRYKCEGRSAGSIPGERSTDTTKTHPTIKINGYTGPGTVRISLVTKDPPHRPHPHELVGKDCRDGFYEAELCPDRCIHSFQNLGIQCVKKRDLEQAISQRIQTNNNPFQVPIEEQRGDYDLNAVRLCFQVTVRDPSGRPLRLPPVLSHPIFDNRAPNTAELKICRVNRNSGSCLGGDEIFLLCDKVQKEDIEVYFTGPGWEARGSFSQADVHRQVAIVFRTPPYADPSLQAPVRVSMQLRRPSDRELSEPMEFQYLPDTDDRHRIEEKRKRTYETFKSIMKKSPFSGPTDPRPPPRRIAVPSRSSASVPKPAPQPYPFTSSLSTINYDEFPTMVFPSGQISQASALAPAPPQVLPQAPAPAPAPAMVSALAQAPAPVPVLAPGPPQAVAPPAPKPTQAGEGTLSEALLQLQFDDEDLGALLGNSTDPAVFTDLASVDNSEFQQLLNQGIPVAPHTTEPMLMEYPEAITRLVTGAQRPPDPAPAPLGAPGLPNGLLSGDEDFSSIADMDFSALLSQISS

| Substance | percent of parent (% of parent peptide) |
| --- | --- |
| USP7 peptide A23 (629-646, …) R634A | < 60 |
| USP7 peptide C13 (829-846, …) F839A | < 60 |
| USP7 peptide C20 (857-874, …) Q872A | < 60 |
| USP7 peptide C25 (877-894, …) F888A | < 60 |
| USP7 peptide C25 (877-894, …) F894A | < 60 |
| USP7 peptide C30 (897-914, …) E905A | < 60 |
| USP7 peptide C30 (897-914, …) F903A | < 60 |
| USP7 peptide C30 (897-914, …) K914A | < 60 |
| USP7 peptide C30 (897-914, …) L899A | < 60 |

Other lines, results leading:

| percent of parent (% of parent peptide) | Substance |
| --- | --- |
| < 60 | USP7 peptide A23 (629-646, …) K633A |
| < 60 | USP7 peptide C13 (829-846, …) D833A |
| < 60 | USP7 peptide C13 (829-846, …) M835A |
| < 60 | USP7 peptide C13 (829-846, …) Y845A |
| < 60 | USP7 peptide C25 (877-894, …) D887A |
